The text below walks through data of patent US20200354692A1.

For the assay, the target named is NAD(P)+-dependent methanol dehydrogenase from Bacillus methanolicus MGA3 (Genbank EIJ77596.1, GI 387585261) (Bacillus methanolicus MGA3) (UniProt P31005). The experiment in a line: cell-based or functional assay.

For the substance “activator protein from Bacillus methanolicus MGA3 (locus tag MGA3_09170, GI 387591061, Accession EIJ83380) (from UniProt Q8KP10 1-185) (enzyme)”, the ratio of "act" to methanol dehydrogenase (in vitro activation test with 5 M methanol, 2 mM NAD, 10 uM methanol dehydrogenase 2315A, pH 7.4) (ratio act : methanol dehydrogenase) came to 10.
